Numbered stars: 1 amine (or outer) side, 2 acyl side, 3 side chain; on linkers, the order of the positions; unused ones are H or OH. Square brackets hold non-standard residues; d marks the D form. Side chains are listed from the residue outwards. Ends that are not written are not given here. * marks the point of attachment. 40K‑TE PEG = 40 kDa PEG covalently bound via thioether, formed by reaction of the free thiol of the peptide (Cys side chain) with an iodoacetic-functionalized PEG; γGlu = O=C(O)[C@H](CCC(=O)[*:2])N[*:1]; Palmitoyl = CCCCCCCCCCCCCCCC(=O)*; Aib = CC(C)(N)C(=O)O
T1: GIP receptor (UniProt P48546 22-466)
T1 sequence (looked up): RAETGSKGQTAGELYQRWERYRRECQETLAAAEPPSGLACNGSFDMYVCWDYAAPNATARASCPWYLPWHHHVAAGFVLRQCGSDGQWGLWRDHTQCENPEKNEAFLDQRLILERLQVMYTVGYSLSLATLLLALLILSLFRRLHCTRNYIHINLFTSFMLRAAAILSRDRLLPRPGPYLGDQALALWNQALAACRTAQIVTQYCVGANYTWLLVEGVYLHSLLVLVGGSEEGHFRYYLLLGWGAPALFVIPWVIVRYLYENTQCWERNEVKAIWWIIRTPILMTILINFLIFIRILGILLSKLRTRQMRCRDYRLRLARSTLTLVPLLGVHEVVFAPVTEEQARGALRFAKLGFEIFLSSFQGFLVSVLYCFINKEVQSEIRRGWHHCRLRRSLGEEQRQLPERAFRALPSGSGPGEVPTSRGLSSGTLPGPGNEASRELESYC

B1: peptide of SEQ ID NO: 36 (peptide)
peptide: H[Aib]QGTFTSDK([γGlu-Palmitoyl])SKYLD[Aib]RAAQDFVQWLKDGRG-NH2
modifications: N-terminus assumed
SMILES: CCCCCCCCCCCCCCCC(=O)N[C@@H](CCC(=O)NCCCC[C@H](NC(=O)[C@H](CC(=O)O)NC(=O)[C@H](CO)NC(=O)[C@@H](NC(=O)[C@H](Cc1ccccc1)NC(=O)[C@@H](NC(=O)CNC(=O)[C@H](CCC(N)=O)NC(=O)C(C)(C)NC(=O)[C@@H](N)Cc1c[nH]cn1)[C@@H](C)O)[C@@H](C)O)C(=O)N[C@@H](CO)C(=O)N[C@@H](CCCCN)C(=O)N[C@@H](Cc1ccc(O)cc1)C(=O)N[C@@H](CC(C)C)C(=O)N[C@@H](CC(=O)O)C(=O)NC(C)(C)C(=O)N[C@@H](CCCNC(=N)N)C(=O)N[C@@H](C)C(=O)N[C@@H](C)C(=O)N[C@@H](CCC(N)=O)C(=O)N[C@@H](CC(=O)O)C(=O)N[C@@H](Cc1ccccc1)C(=O)N[C@H](C(=O)N[C@@H](CCC(N)=O)C(=O)N[C@@H](Cc1c[nH]c2ccccc12)C(=O)N[C@@H](CC(C)C)C(=O)N[C@@H](CCCCN)C(=O)N[C@@H](CC(=O)O)C(=O)NCC(=O)N[C@@H](CCCNC(=N)N)C(=O)NCC(N)=O)C(C)C)C(=O)O
B2: peptide of SEQ ID NO: 37 (peptide)
peptide: H[Aib]QGTFTSDK([γGlu-γGlu-Palmitoyl])SKYLD[Aib]RAAQDFVQWLMKTK[dE]-OH
modifications: N-terminus assumed
SMILES: CCCCCCCCCCCCCCCC(=O)N[C@@H](CCC(=O)N[C@@H](CCC(=O)NCCCC[C@H](NC(=O)[C@H](CC(=O)O)NC(=O)[C@H](CO)NC(=O)[C@@H](NC(=O)[C@H](Cc1ccccc1)NC(=O)[C@@H](NC(=O)CNC(=O)[C@H](CCC(N)=O)NC(=O)C(C)(C)NC(=O)[C@@H](N)Cc1c[nH]cn1)[C@@H](C)O)[C@@H](C)O)C(=O)N[C@@H](CO)C(=O)N[C@@H](CCCCN)C(=O)N[C@@H](Cc1ccc(O)cc1)C(=O)N[C@@H](CC(C)C)C(=O)N[C@@H](CC(=O)O)C(=O)NC(C)(C)C(=O)N[C@@H](CCCNC(=N)N)C(=O)N[C@@H](C)C(=O)N[C@@H](C)C(=O)N[C@@H](CCC(N)=O)C(=O)N[C@@H](CC(=O)O)C(=O)N[C@@H](Cc1ccccc1)C(=O)N[C@H](C(=O)N[C@@H](CCC(N)=O)C(=O)N[C@@H](Cc1c[nH]c2ccccc12)C(=O)N[C@@H](CC(C)C)C(=O)N[C@@H](CCSC)C(=O)N[C@@H](CCCCN)C(=O)N[C@H](C(=O)N[C@@H](CCCCN)C(=O)N[C@H](CCC(=O)O)C(=O)O)[C@@H](C)O)C(C)C)C(=O)O)C(=O)O
B3: peptide of SEQ ID NO: 15 (peptide)
peptide: H[Aib]QGTFTSDYSKYLDEKRA[Aib]EFVC(40K‑TE PEG)WLMDT-NH2

What was measured:
Experiment in all cases: cell-based or functional assay
glucagon receptor = glucagon receptor (UniProt P47871 26-477, limits assumed)
glucagon receptor, sequence (P47871 26-477 limits assumed): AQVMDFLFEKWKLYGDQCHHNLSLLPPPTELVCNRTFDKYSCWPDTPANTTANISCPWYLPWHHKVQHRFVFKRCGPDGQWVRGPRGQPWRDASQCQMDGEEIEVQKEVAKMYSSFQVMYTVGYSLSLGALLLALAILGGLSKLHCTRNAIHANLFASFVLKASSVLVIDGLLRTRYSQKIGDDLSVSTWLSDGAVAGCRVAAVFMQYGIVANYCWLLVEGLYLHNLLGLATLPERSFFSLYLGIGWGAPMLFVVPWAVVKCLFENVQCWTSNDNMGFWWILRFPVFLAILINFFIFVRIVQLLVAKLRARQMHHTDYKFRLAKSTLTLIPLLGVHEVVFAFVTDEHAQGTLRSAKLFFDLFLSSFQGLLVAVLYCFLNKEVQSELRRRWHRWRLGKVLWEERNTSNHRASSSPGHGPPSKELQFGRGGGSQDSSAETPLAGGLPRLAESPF

GLP-1 receptor = GLP-1 receptor (UniProt P43220 24-463, limits assumed)
GIP receptor = target: T1, GIP receptor

Binder | EC50 (nM) at glucagon receptor (glucagon receptor) | EC50 (nM) at GLP-1 receptor (GLP-1 receptor) | EC50 (nM) at GIP receptor (GIP receptor)
B1 | 0.028 nM | 0.003 nM | 0.47 nM
B2 | 0.018 nM | 0.016 nM | 3.3 nM
B3 | 1.1 nM | 0.071 nM | 316 nM

From patent US20140206607A1 (INDIANA UNIVERSITY RESEARCH AND TECHNOLOGY, published 2014)
